One block for each substance: values may come before it.
Columns and labels:
mbp_bovin MBP [1] = target: mbp_bovin MBP (UniProt P02687)
akt1_human AKT1 [2] = target: akt1_human AKT1 (UniProt P31749)
akt1_human AKT1 [3] = target: akt1_human AKT1 (UniProt P31749); remark: listed apart in the source
mbp_bovin MBP [4] = target: mbp_bovin MBP (UniProt P02687); remark: listed apart in the source
akt1_human AKT1 [5] = target: akt1_human AKT1 (UniProt P31749); remark: listed apart in the source

akt1_human AKT1, sequence (P31749 whole entry): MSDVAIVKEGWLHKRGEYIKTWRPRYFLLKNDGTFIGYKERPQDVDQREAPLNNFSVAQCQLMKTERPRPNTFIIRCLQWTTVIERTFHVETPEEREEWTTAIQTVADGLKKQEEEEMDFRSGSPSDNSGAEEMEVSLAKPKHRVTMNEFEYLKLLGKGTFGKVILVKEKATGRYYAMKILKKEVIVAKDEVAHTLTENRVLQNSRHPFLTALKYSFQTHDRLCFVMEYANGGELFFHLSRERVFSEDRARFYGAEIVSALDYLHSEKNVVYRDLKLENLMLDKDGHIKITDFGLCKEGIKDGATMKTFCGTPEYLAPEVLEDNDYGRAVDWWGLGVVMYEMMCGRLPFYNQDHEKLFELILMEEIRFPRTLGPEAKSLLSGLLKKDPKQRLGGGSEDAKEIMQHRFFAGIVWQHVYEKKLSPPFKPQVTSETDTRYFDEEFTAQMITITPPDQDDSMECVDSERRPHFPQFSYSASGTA
mbp_bovin MBP, sequence (P02687 whole entry): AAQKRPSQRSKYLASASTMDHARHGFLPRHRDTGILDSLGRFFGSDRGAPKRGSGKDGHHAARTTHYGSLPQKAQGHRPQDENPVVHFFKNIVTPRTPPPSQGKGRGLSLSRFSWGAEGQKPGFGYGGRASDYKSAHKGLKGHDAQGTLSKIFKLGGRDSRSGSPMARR

- effect of a mutation on the interaction (mbp_bovin MBP [1]): increasing interaction
- effect of a mutation on the interaction (akt1_human AKT1 [2]): decreasing interaction
Substance: Leucine-rich repeat serine/threonine-protein kinase 2 (Homo sapiens), Q5S007 I2020T

- effect of a mutation on the interaction (akt1_human AKT1 [3]): decreasing interaction
- effect of a mutation on the interaction (mbp_bovin MBP [4]): increasing interaction
Substance: Leucine-rich repeat serine/threonine-protein kinase 2 (Homo sapiens), Q5S007 G2019S

- effect of a mutation on the interaction (akt1_human AKT1 [5]): decreasing interaction
Substance: Leucine-rich repeat serine/threonine-protein kinase 2 (Homo sapiens), Q5S007 R1441C
